According to publication PMC10929192, “Hypoxia-activated selectivity-improved anti-PKM2 antibody combined with prodrug TH-302 for potentiated targeting therapy in hepatocellular carcinoma” (International Journal of Biological Sciences, 2024):
Blank lines part the entries; values can stand above or below the binder they belong to.

How the values were obtained:
[1] = biological target: T1, PKM2 Ag in HCC tissues (Homo sapiens (HCC patient tissue), UniProt P14618); experiment: immunostaining of cells or tissue; IHC on sections of HCC patient specimens; primary Abs 0.1 mg/mL overnight at 4 °C; goat anti-human IgG-HRP; conditions: one partner purified
T1 construct: M2 splice isoform of pyruvate kinase (PKM2), endogenous in human HCC tissue; source: endogenous, surgical specimens from HCC patients (tissue sections)
T1 sequence (P14618 whole entry, canonical isoform): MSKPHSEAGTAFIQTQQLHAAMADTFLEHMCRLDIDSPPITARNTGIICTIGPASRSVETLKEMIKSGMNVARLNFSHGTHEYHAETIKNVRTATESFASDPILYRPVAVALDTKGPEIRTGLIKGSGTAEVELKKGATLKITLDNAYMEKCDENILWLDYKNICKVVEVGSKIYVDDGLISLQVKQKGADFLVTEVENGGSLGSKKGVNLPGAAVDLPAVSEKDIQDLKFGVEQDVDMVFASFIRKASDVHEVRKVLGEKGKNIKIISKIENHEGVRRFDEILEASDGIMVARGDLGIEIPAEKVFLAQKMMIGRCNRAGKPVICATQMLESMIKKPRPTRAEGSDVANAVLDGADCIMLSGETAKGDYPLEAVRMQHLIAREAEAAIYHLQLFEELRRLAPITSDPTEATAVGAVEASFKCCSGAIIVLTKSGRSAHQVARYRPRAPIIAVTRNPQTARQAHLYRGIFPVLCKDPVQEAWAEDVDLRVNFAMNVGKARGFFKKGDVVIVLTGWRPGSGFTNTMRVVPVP

[2] = biological target: T2, human PKM2 Ag (M2 splice isoform of pyruvate kinase), purified (Homo sapiens, UniProt P14618); experiment: SPR; human PKM2 Ag (20 µg/mL, sodium acetate buffer, pH 5) on a CM5 chip; serial dilutions of the Abs injected at 20 μL/min, 120 s binding, 300 s dissociation; 1:1 kinetic binding model; Biacore T200; conditions: both partners purified
T2 construct: M2 splice isoform of pyruvate kinase (PKM2), human; also called purified PKM2 antigen
T2 sequence (P14618 whole entry, canonical isoform): as above

[3] = biological target: T3, PKM2 Ag expressed in HCC cells (HepG2, Huh7) (Homo sapiens (HepG2, Huh7), UniProt P14618); experiment: flow cytometry on cells; normoxia-cultured HepG2 and Huh7 cells, EDTA-detached, Abs in serum-free medium 1 h at 37 °C; goat anti-human IgG(H+L)-RDM; conditions: one partner purified
T3 construct: M2 splice isoform of pyruvate kinase (PKM2), endogenous in human HCC cell lines; living cells were incubated with the antibodies at 37 °C; the antibody is said to internalize; also called expressed PKM2 Ag; source: endogenous, HepG2 and Huh7 cells
T3 sequence (P14618 whole entry, canonical isoform): as above

binding result [1]: binds
binding result [2]: binds
B1: human full-length H103 Ab (anti-PKM2 antibody, IgG1) (antibody, V domains shown)
VH: QVQLQESGPGLVRPSGTLSLICAVSGDSISSSIWWSWVRQSPGKGLEWIGYIYHNGNTYYNPSLESRVTISVDTSENQFSLKLSSVTAADTAVYYCARGYDSSGYYWTDDRYYFDYWGQGTLVTVSS
VL: NFMLTQPHSVSESPGKTVTISCTGSSGSIASNYVQWYQQRPGSAPTTVIYEDNQRPPGVPDRFSGSIDSSSNSASLTISALETEDEADYYCQSYDSRNIDVVFGGGTKVTVL
notes: the first five amino acids were replaced by those of germline IGHV4-4*02; constant region of human IgG1 (from the expression vector pcMV3-H103-H); light chain constant region from the vector pcMV3-H103-L; IgG1; codon optimised; also called parental H103 Ab; parent H103 Ab

binding result [1]: binds
binding result [3]: binds
binding result [2]: binds
B2: Na2S2O4-cleaved HAP103 Ab (act-HAP103) (antibody, V domains shown)
VH: B1 VH
VL: B1 VL
notes: as the VH of m1; constant region of human IgG1, as in m1; as the VL of m1; as the light chain constant region of m1; IgG1; also called act-HAP103 Ab; act-HAP Ab; source: HAP103 Ab incubated with Na2S2O4 in carbonate buffer pH 8.0 at RT for 2 h, ultrafiltration
